The labels stand for the following.
B1: TFDP1 (peptide)
chain: NRKGEKNGKGLRHFSMKVCEKVQRKG
B2: CCNA1 (peptide)
chain: EGMRTILVDWLVEVGEEYKLRAETLY
B3: INCA1 (peptide)
chain: DQEEACASRQLHSLASFSTVTARRNP
B4: HNRPLL (peptide)
chain: KFMKTIPGTALVEMGDEYAVERAVTH
B5: BFAR (peptide)
chain: KWTAEEVVLWLEQLGPWASLYRERFL
B6: BCL2L11 (peptide)
chain: MRPEIWIAQEDRRIGDEFNAYYARRV
B7: CASP8 (peptide)
chain: PFKKMDFSRNLYDIGEQLDSEDLASL
B8: SNTB1 (peptide)
chain: DATHDEAVQALKRAGKEVLLEVKYMR
B9: ILF3 (peptide)
chain: LCKEKPTTALLDKVADNLAIQLAAVT
B10: KIAA0367 (peptide)
chain: NMSNYSSSSLLSGAGKDSLVEHDEEF
B11: CCDC138 (peptide)
chain: GAQHSTMTSTLRRLGEDIFKGVVTKG
B12: DPF3 (peptide)
chain: SCMATVIHNPLKALGDQFYKEAIEHC
B13: MED17 (peptide)
chain: ELLRLRQHWKLRKVGDKILGDLSYRS
B14: DCST2 (peptide)
chain: FSVDLNASRSLSQVAMDLHEAVSMKL
B15: CCNL1 (peptide)
chain: DGLDLPSETDLRILGCELIQAAGILL

Sequence of Bcl-xL, Q07817 (Q07817 1-209): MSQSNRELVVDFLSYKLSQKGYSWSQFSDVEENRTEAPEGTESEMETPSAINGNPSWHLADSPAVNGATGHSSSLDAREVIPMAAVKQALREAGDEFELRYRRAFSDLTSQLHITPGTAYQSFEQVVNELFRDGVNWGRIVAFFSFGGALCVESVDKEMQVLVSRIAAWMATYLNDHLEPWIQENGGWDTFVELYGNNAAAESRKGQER

In the first experiment the target is Bcl-2, P10415. In words: peptide SPOT array, c-Myc-tagged receptor at 1 uM or 100 nM, anti-c-Myc-Cy3.
Sequence of Bcl-2, P10415 (P10415 1-217): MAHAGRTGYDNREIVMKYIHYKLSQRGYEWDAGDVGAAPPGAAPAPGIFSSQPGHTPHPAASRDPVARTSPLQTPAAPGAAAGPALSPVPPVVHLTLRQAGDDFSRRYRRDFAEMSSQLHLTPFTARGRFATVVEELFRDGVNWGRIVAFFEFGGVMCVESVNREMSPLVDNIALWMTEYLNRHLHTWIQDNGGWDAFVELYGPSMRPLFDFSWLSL
Molecule B1 had an SPOT signal as a fraction of Bim BH3's signal on the same receptor and array of 0.18.

B2 yielded an SPOT signal as a fraction of Bim BH3's signal on the same receptor and array of 0.01.

For the molecule B3, the SPOT signal as a fraction of Bim BH3's signal on the same receptor and array came to 0.08.

As to B4, the SPOT signal as a fraction of Bim BH3's signal on the same receptor and array was determined as 0.01.

The molecule B5 gave an SPOT signal as a fraction of Bim BH3's signal on the same receptor and array of 0.02.

Consider B6, for which the SPOT signal as a fraction of Bim BH3's signal on the same receptor and array is 0.05.

Molecule B7 had an SPOT signal as a fraction of Bim BH3's signal on the same receptor and array of 0.02.

Consider B8, for which the SPOT signal as a fraction of Bim BH3's signal on the same receptor and array stood at 0.01.

B9 returned an SPOT signal as a fraction of Bim BH3's signal on the same receptor and array of 0.01.

In turn, B10 had an SPOT signal as a fraction of Bim BH3's signal on the same receptor and array of 0.01.

For the molecule B11, the SPOT signal as a fraction of Bim BH3's signal on the same receptor and array came to 0.09.

Consider B12, for which the SPOT signal as a fraction of Bim BH3's signal on the same receptor and array was found to be 0.15.

Molecule B13 displayed an SPOT signal as a fraction of Bim BH3's signal on the same receptor and array of 0.33.

Turning to B14, the SPOT signal as a fraction of Bim BH3's signal on the same receptor and array amounted to 0.01.

Molecule B15 came in with an SPOT signal as a fraction of Bim BH3's signal on the same receptor and array of 0.01.

Another experiment has as its target T1, Bcl-w, Q92843.
T1 chain: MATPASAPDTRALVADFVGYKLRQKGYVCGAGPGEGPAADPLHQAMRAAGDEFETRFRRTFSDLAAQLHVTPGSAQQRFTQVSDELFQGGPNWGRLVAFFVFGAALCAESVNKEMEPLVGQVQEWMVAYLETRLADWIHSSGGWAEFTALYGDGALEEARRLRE
The description is as above.
The molecule B1 registered an SPOT signal as a fraction of Bim BH3's signal on the same receptor and array of 0.91.

Molecule B2 had an SPOT signal as a fraction of Bim BH3's signal on the same receptor and array of 0.02.

Molecule B3 came in with an SPOT signal as a fraction of Bim BH3's signal on the same receptor and array of 0.2.

On to B4, for which the SPOT signal as a fraction of Bim BH3's signal on the same receptor and array worked out at 0.02.

For B5, the SPOT signal as a fraction of Bim BH3's signal on the same receptor and array was determined as 0.03.

Molecule B6 had an SPOT signal as a fraction of Bim BH3's signal on the same receptor and array of 0.06.

In turn, B7 yielded an SPOT signal as a fraction of Bim BH3's signal on the same receptor and array of 0.03.

For the molecule B8, the SPOT signal as a fraction of Bim BH3's signal on the same receptor and array stood at 0.02.

In turn, B9 returned an SPOT signal as a fraction of Bim BH3's signal on the same receptor and array of 0.02.

B10 showed an SPOT signal as a fraction of Bim BH3's signal on the same receptor and array of 0.02.

With B11, the SPOT signal as a fraction of Bim BH3's signal on the same receptor and array is 0.64.

Molecule B12 yielded an SPOT signal as a fraction of Bim BH3's signal on the same receptor and array of 0.2.

Regarding B13, the SPOT signal as a fraction of Bim BH3's signal on the same receptor and array came to 1.03.

Regarding B14, the SPOT signal as a fraction of Bim BH3's signal on the same receptor and array was found to be 0.03.

Molecule B15 showed an SPOT signal as a fraction of Bim BH3's signal on the same receptor and array of 0.01.

Another experiment addresses Bcl-xL, Q07817. Described as above.
In the case of B1, the SPOT signal as a fraction of Bim BH3's signal on the same receptor and array was found to be 0.54.

The molecule B2 gave an SPOT signal as a fraction of Bim BH3's signal on the same receptor and array of 0.05.

Molecule B3 displayed an SPOT signal as a fraction of Bim BH3's signal on the same receptor and array of 0.12.

The molecule B4 came in with an SPOT signal as a fraction of Bim BH3's signal on the same receptor and array of 0.04.

In turn, B5 showed an SPOT signal as a fraction of Bim BH3's signal on the same receptor and array of 0.07.

On to B6, for which the SPOT signal as a fraction of Bim BH3's signal on the same receptor and array is 0.09.

For B7, the SPOT signal as a fraction of Bim BH3's signal on the same receptor and array turned out to be 0.07.

The molecule B8 registered an SPOT signal as a fraction of Bim BH3's signal on the same receptor and array of 0.04.

In turn, B9 came in with an SPOT signal as a fraction of Bim BH3's signal on the same receptor and array of 0.03.

Regarding B10, the SPOT signal as a fraction of Bim BH3's signal on the same receptor and array is 0.03.

For the molecule B11, the SPOT signal as a fraction of Bim BH3's signal on the same receptor and array came to 0.12.

Consider B12, for which the SPOT signal as a fraction of Bim BH3's signal on the same receptor and array is 0.13.

With B13, the SPOT signal as a fraction of Bim BH3's signal on the same receptor and array came to 0.89.

B14 registered an SPOT signal as a fraction of Bim BH3's signal on the same receptor and array of 0.03.

Molecule B15 came in with an SPOT signal as a fraction of Bim BH3's signal on the same receptor and array of 0.03.

In the next experiment the target is T2, Bfl-1, Q16548.
T2 chain: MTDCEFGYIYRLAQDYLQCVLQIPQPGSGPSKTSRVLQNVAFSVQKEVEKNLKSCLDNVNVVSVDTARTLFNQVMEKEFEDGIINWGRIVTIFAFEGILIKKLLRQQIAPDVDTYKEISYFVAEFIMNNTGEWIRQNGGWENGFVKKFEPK
The experiment is described as above.
Consider B1, for which the SPOT signal as a fraction of Bim BH3's signal on the same receptor and array was found to be 0.52.

For B2, the SPOT signal as a fraction of Bim BH3's signal on the same receptor and array worked out at 0.02.

Take B3: the SPOT signal as a fraction of Bim BH3's signal on the same receptor and array amounted to 0.35.

For the molecule B4, the SPOT signal as a fraction of Bim BH3's signal on the same receptor and array worked out at 0.02.

As for B5, the SPOT signal as a fraction of Bim BH3's signal on the same receptor and array was 0.04.

As to B6, the SPOT signal as a fraction of Bim BH3's signal on the same receptor and array was determined as 0.05.

B7 registered an SPOT signal as a fraction of Bim BH3's signal on the same receptor and array of 0.02.

As for B8, the SPOT signal as a fraction of Bim BH3's signal on the same receptor and array turned out to be 0.03.

As for B9, the SPOT signal as a fraction of Bim BH3's signal on the same receptor and array is 0.02.

B10 gave an SPOT signal as a fraction of Bim BH3's signal on the same receptor and array of 0.01.

For the molecule B11, the SPOT signal as a fraction of Bim BH3's signal on the same receptor and array came out at 0.45.

In turn, B12 gave an SPOT signal as a fraction of Bim BH3's signal on the same receptor and array of 0.03.

Turning to B13, the SPOT signal as a fraction of Bim BH3's signal on the same receptor and array worked out at 0.78.

Molecule B14 returned an SPOT signal as a fraction of Bim BH3's signal on the same receptor and array of 0.08.

Molecule B15 registered an SPOT signal as a fraction of Bim BH3's signal on the same receptor and array of 0.01.

Another experiment concerns the target T3, Mcl-1, Q07820.
T3 chain: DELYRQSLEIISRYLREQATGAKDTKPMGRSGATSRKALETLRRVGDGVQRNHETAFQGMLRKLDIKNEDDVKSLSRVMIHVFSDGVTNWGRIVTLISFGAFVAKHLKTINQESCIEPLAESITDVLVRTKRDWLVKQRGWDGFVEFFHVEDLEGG
Described as above.
With B1, the SPOT signal as a fraction of Bim BH3's signal on the same receptor and array came out at 0.3.

As for B2, the SPOT signal as a fraction of Bim BH3's signal on the same receptor and array was determined as 0.05.

Molecule B3 displayed an SPOT signal as a fraction of Bim BH3's signal on the same receptor and array of 0.23.

B4: the SPOT signal as a fraction of Bim BH3's signal on the same receptor and array worked out at 0.02.

B5 yielded an SPOT signal as a fraction of Bim BH3's signal on the same receptor and array of 0.05.

Molecule B6 returned an SPOT signal as a fraction of Bim BH3's signal on the same receptor and array of 0.05.

The molecule B7 displayed an SPOT signal as a fraction of Bim BH3's signal on the same receptor and array of 0.05.

The molecule B8 came in with an SPOT signal as a fraction of Bim BH3's signal on the same receptor and array of 0.02.

The molecule B9 showed an SPOT signal as a fraction of Bim BH3's signal on the same receptor and array of 0.02.

As to B10, the SPOT signal as a fraction of Bim BH3's signal on the same receptor and array was found to be 0.02.

B11 showed an SPOT signal as a fraction of Bim BH3's signal on the same receptor and array of 0.43.

B12 displayed an SPOT signal as a fraction of Bim BH3's signal on the same receptor and array of 0.02.

Consider B13, for which the SPOT signal as a fraction of Bim BH3's signal on the same receptor and array came out at 0.48.

For B14, the SPOT signal as a fraction of Bim BH3's signal on the same receptor and array was found to be 0.06.

Turning to B15, the SPOT signal as a fraction of Bim BH3's signal on the same receptor and array amounted to 0.03.
